Data from patent publication US20160122768.

T1: phospho-SRC Y527 peptide [H-TSTEPQ-pY-QPGENL-OH]
T1 chain: TSTEPQYQPGENL


Legend:
[1] = target: SRC (endogenous, from RA FLS lysates), P12931
[2] = target: T1, phospho-SRC Y527 peptide …

Row | Protein | basal phosphorylation of SRC Y527 in RA FLS after PTPRK knockdown (Western blotting) [1] | in vitro dephosphorylation of the SRC phospho-Y527 peptide (PTP assay, Biomol Green, absorbance at 620 nm) [2]
1 | RPTPκ (endogenous, in human RA FLS and RA synovial tissue) (protein) AQGQFSAGGCTFDDGPGACDYHQDLYDDFEWVHVSAQEPHYLPPEMPQGSYMIVDSSDHDPGEKARLQLPTMKENDTHCIDFSYLLYSQKGLNPGTLNILVRVNKGPLANPIWNVTGFTGRDWLRAELAVSTFWPNEYQVIFEAEVSGGRSGYIAIDDIQVLSYPCDKSPHFLRLGDVEVNAGQNATFQCIATGRDAVHNKLWLQRRNGEDIPVAQTKNINHRRFAASFRLQEVTKTDQDLYRCVTQSERGSGVSNFAQLIVREPPRPIAPPQLLGVGPTYLLIQLNANSIIGDGPIILKEVEYRMTSGSWTETHAVNAPTYKLWHLDPDTEYEIRVLLTRPGEGGTGLPGPPLITRTKCAEPMRTPKTLKIAEIQARRIAVDWESLGYNITRCHTFNVTICYHYFRGHNESKADCLDMDPKAPQHVVNHLPPYTNVSLKMILTNPEGRKESEETIIQTDEDVPGPVPVKSLQGTSFENKIFLNWKEPLDPNGIITQYEISYSSIRSFDPAVPVAGPPQTVSNLWNSTHHVFMHLHPGTTYQFFIRASTVKGFGPATAINVTTNISAPTLPDYEGVDASLNETATTITVLLRPAQAKGAPISAYQIVVEELHPHRTKREAGAMECYQVPVTYQNAMSGGAPYYFAAELPPGNLPEPAPFTVGDNRTYQGFWNPPLAPRKGYNIYFQAMSSVEKETKTQCVRIATKAATEEPEVIPDPAKQTDRVVKIAGISAGILVFILLLLVVILIVKKSKLAKKRKDAMGNTRQEMTHMVNAMDRSYADQSTLHAEDPLSITFMDQHNFSPRYENHSATAESSRLLDVPRYLCEGTESPYQTGQLHPAIRVADLLQHINLMKTSDSYGFKEEYESFFEGQSASWDVAKKDQNRAKNRYGNIIAYDHSRVILQPVEDDPSSDYINANYIDGYQRPSHYIATQGPVHETVYDFWRMIWQEQSACIVMVTNLVEVGRVKCYKYWPDDTEVYGDFKVTCVEMEPLAEYVVRTFTLERRGYNEIREVKQFHFTGWPDHGVPYHATGLLSFIRRVKLSNPPSAGPIVVHCSAGAGRTGCYIVIDIMLDMAEREGVVDIYNCVKALRSRRINMVQTEEQYIFIHDAILEACLCGETAIPVCEFKAAYFDMIRIDSQTNSSHLKDEFQTLNSVTPRLQAEDCSIACLPRNHDKNRFMDMLPPDRCLPFLITIDGESSNYINAALMDSYRQPAAFIVTQYPLPNTVKDFWRLVYDYGCTSIVMLNEVDLSQGCPQYWPEEGMLRYGPIQVECMSCSMDCDVINRIFRICNLTRPQEGYLMVQQFQYLGWASHREVPGSKRSFLKLILQVEKWQEECEEGEGRTIIHCLNGGGRSGMFCAIGIVVEMVKRQNVVDVFHAVKTLRNSKPNMVEAPEQYRFCYDVALEYLESS | RA FLS treated with PTPRK ASO showed increased basal phosphorylation of SRC Y527 | 
2 | C-terminally HA-tagged wild type (WT) RPTPκ (NM 008983.2), full-length, immunoprecipitated from COS-1 cells (protein) ALGQFSAGGCTFDDGPGACDYHQDLYDDFEWVHVSAQEPHYLPPEMPQGSYMVVDSSNHDPGEKARLQLPTMKENDTHCIDFSYLLYSQKGLNPGTLNILVRVNKGPLANPIWNVTGFTGRDWLRAELAVSTFWPNEYQVIFEAEVSGGRSGYIAIDDIQVLSYPCDKSPHFLRLGDVEVNAGQNATFQCIATGRDAVHNKLWLQRRNGEDIPVAQTKNINHRRFAASFRLQEVTKTDQDLYRCVTQSERGSGVSNFAQLIVREPPRPIAPPQLLGVGPTYLLIQLNANSIIGDGPIILKEVEYRMTSGSWTETHAVNAPTYKLWHLDPDTEYEIRVLLTRPGEGGTGLPGPPLITRTKCAEPMRTPKTLKIAEIQARRIAVDWESLGYNITRCHTFNVTICYHYFRGHNESRADCLDMDPKAPQHVVNHLPPYTNVSLKMILTNPEGRKESEETIIQTDEDVPGPVPVKSLQGTSFENKIFLNWKEPLEPNGIITQYEVSYSSIRSFDPAVPVAGPPQTVSNLWNSTHHVFMHLHPGTTYQFFIRASTVKGFGPATAINVTTNISAPSLPDYEGVDASLNETATTITVLLRPAQAKGAPISAYQIVVEQLHPHRTKREAGAMECYQVPVTYQNALSGGAPYYFAAELPPGNLPEPAPFTVGDNRTYKGFWNPPLAPRKGYNIYFQAMSSVEKETKTQCVRIATKAAATEEPEVIPDPAKQTDRVVKIAGISAGILVFILLLLVVIVIVKKSKLAKKRKDAMGNTRQEMTHMVNAMDRSYADQSTLHAEDPLSLTFMDQHNFSPRLPNDPLVPTAVLDENHSATAESSRLLDVPRYLCEGTESPYQTGQLHPAIRVADLLQHINLMKTSDSYGFKEEYESFFEGQSASWDVAKKDQNRAKNRYGNIIAYDHSRVILQPVEDDPSSDYINANYIDIWLYRDGYQRPSHYIATQGPVHETVYDFWRMVWQEQSACIVMVTNLVEVGRVKCYKYWPDDTEVYGDFKVTCVEMEPLAEYVVRTFTLERRGYNEIREVKQFHFTGWPDHGVPYHATGLLSFIRRVKLSNPPSAGPIVVHCSAGAGRTGCYIVIDIMLDMAEREGVVDIYNCVKALRSRRINMVQTEEQYIFIHDAILEACLCGETAIPVCEFKAAYFDMIRIDSQTNSSHLKDEFQTLNSVTPRLQAEDCSIACLPRNHDKNRFMDMLPPDRCLPFLITIDGESSNYINAALMDSYRQPAAFIVTQYPLPNTVKDFWRLVYDYGCTSIVMLNEVDLSQGCPQYWPEEGMLRYGPIQVECMSCSMDCDVINRIFRICNLTRPQEGYLMVQQFQYLGWASHREVPGSKRSFLKLILQVEKWQEECEEGEGRTIIHCLNGGGRSGMFCAIGIVVEMVKRQNVVDVFHAVKTLRNSKPNMVEAPEQYRFCYDVALEYLESS |  | full-length RPTPk immunoprecipitated from COS-1 cells in vitro dephosphorylated a SRC phospho-Y527 peptide
